Measurements published in patent US20130129725A1 (Amgen, published 2013).

T1: hu-FGFR1c-His (human, UniProt P11362 22-376)
T1 construct: also called human FGFR1c; not shown: His tag
T1 sequence: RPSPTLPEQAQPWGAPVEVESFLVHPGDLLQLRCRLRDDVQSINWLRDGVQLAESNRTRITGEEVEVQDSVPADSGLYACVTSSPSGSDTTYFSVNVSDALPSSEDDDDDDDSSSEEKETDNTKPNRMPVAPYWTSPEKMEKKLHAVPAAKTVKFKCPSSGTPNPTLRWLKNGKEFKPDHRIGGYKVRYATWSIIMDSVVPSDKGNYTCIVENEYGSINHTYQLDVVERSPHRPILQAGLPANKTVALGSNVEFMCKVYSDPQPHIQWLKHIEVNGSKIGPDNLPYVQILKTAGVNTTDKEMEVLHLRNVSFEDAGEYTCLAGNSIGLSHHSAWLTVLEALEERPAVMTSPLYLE

B1: 2G10-Rm26 (bispecific antibody, human IgG1, lambda, N297Q)
heavy: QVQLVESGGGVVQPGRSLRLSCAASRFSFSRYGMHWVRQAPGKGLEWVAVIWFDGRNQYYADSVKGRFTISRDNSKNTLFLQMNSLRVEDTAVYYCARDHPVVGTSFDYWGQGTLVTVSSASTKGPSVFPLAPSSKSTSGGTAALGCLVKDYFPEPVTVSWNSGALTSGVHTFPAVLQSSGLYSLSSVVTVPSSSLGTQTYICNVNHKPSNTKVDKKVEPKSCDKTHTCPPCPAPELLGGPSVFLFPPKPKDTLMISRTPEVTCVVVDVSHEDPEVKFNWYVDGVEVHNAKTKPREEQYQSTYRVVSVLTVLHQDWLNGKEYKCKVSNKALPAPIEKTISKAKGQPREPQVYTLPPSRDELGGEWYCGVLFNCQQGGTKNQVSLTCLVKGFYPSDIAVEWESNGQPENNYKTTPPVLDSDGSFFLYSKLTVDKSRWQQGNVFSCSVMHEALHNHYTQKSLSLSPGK
light: QSVLTQPPSVSAAPGQKVTVSCSGSSSNIGNNYVSWYQQLPGTAPKLLIYDNNKRPSGIPDRFSGSKSGTSATLGITGLQTGDEAEYYCGTWDSSLSVVAFGGGTKLTVLGQPKANPTVTLFPPSSEELQANKATLVCLISDFYPGAVTVAWKADGSPVKAGVETTKPSKQSNNKYAASSYLSLTPEQWKSHRSYSCQVTHEGSTVEKTVAPTECS
notes: also called H2-Rm26
B2: 2G10-Rm40 (bispecific antibody, human IgG1, lambda, N297Q)
heavy: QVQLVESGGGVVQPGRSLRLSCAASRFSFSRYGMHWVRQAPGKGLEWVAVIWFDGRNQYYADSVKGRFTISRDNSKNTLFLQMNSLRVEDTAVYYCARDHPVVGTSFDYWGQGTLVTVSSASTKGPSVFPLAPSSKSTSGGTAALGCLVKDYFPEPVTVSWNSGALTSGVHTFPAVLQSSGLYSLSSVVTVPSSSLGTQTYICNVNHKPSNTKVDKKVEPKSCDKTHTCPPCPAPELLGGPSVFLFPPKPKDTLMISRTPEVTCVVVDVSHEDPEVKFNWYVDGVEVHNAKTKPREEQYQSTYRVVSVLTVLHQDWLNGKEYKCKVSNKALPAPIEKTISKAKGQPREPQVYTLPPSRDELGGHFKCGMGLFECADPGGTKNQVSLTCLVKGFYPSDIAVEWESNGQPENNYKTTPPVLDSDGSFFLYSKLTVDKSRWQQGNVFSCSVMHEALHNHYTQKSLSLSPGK
light: B1 light
notes: also called H2-Rm40
B3: 1A2-Rm26 (bispecific antibody, human IgG1, kappa, N297Q, V domains shown)
VH: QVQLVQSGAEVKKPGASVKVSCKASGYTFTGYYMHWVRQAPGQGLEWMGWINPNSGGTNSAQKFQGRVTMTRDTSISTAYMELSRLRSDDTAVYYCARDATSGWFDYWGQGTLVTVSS
VL: DIVMTQTPLSSPVTLGQPASISCRSSQSLVYSDGNTYLSWLQQRPGQPPRLLIYKISNRFSGVPDRFSGSGAGTDFTLKISRVEADDVGIYYCMQAIEFPWTFGQGTQVEIKR
notes: also called H1-Rm26

biological target: T1, hu-FGFR1c-His; assay: ELISA (Example 10), antigen on plate, anti-hu-Fc-HRP detection (FIG. 13)
Procedure: Biotin-hu-β-Klotho-His, biotin-mu-βKlotho-His, hu-FGFR1c-His, and mu-FGFR1c-Fc were expressed and purified. Anti-Fc-HRP was purchased from Thermo Fisher Scientific (Rockford, Ill.). Neutravidin 96 well plates (Thermo Fisher Scientific; Rockford, Ill.) were coated with 2 μg/ml biotin-hu-β-Klotho-His or biotin-mu-β-Klotho-His in PBS (Invitrogen; Carlsbad, Calif.). Maxisorp 96 well plates (Thermo Fisher Scientific; Rockford, Ill.) were coated with 2 μg/ml hu-FGFR1c-His or mu-FGFR1c-Fc in PBS. Plates were then incubated at 4° C. overnight. Plates were blocked in 2% milk-PBS at room temperature for 1 hour. Each well was then incubated 1 hour with samples diluted in 2% milk-PBS. Plates were washed 3 times with 300 μl PBS/0.1% Tween20 (Invitrogen; Carlsbad, Calif. and Sigma-Aldrich; St. Louis, Mo.). Anti-hu-Fc-HRP was diluted 1:10000 in 2% milk-PBS and added to each well. Plates were again washed 3 times with 300 μl PBS/0.1% Tween20. Lumiglo reagent (KPL; Gaithersburg, Md.) was added and luminescence was measured (Perkin Elmer; Waltham, Mass.).

Row | binding result | Binder
1 | binds | B1
2 | binds | B2
3 | binds | B3

biological target: T1, hu-FGFR1c-His; assay: ELISA (Example 10), antigen on plate (FIG. 13)

Row | binding result | Binder
4 | binds | YQAWGYYV [SR4]
5 | binds | EWYCGVLFNCQQ [Rm26]
6 | binds | HFKCGMGLFECADP [Rm40]
